Source: article PMC10514136, “Peptide-conjugated antimiRs improve myotonic dystrophy type 1 phenotypes by promoting endogenous MBNL1 expression” (Molecular Therapy. Nucleic Acids, 2023)
“And” between values parts separate entries of the source, which are not always exact repeats. Equal entries are not always repeated.

What was measured:
Format in all cases: in vivo, mouse
[1] = test system: Atp2a1 exon 22; test: Alternative splicing of Atp2a1 exon 22 in muscle by RT-PCR (PSI, splice recovery); conditions: HSALR mice, individual mice; for Percentage spliced-in (PSI) Atp2a1 Gast: 9.2 mg/kg (mean) i.v. x3, day 45, gastrocnemius; for Percentage spliced-in (PSI) Atp2a1 Quads: 9.2 mg/kg (mean) i.v. x3, day 45, quadriceps
Protocol: Total RNA from murine gastrocnemius and quadriceps muscle was isolated using the miRNeasy Mini Kit (QIAGEN, Hilden, Germany) according to the manufacturer’s instructions. One microgram of RNA was digested with DNase I (Invitrogen, Carlsbad, CA) and reverse transcribed with SuperScript II (Invitrogen) using random hexanucleotides. For subsequent PCR reactions, 20 ng of cDNA was used with GoTaq polymerase (Promega). Specific primers were used to analyze the alternative splicing of Nfix, Atp2a1, and Clcn1 in mouse samples (both muscles). Gapdh levels established the endogenous reference levels using 0.2 ng of cDNA. PCR products were separated on a 2% agarose gel and quantified using ImageJ software (NIH, Bethesda, MD). PSR index was defined as value%SI minus X¯%DSI , divided by X¯%DSI minus X¯%HSI (SI, splicing inclusion of each sample; DSI, disease splicing inclusion; HSI, healthy splicing inclusion). Overall, PSR indicates the amount in both muscles analyzed. Primer sequences and exons analyzed are available in Cerro-Herreros et al.[20] In the case of off-targets, interleukins, and muscle regeneration marker Mstn-1, primers sequences are available in Table S5. We used 1 ng of mouse tissue cDNA as a template for multiplex qPCR using the QuantiFast Probe PCR Kit reagent. Commercial TaqMan probes (QIAGEN) were used for mouse (Mbnl1 and Mbnl2; FAM-labeled probes) and reference (GAPDH; MAX-labeled probe) genes. Results were normalized to Gapdh endogenous gene expression.
We used homozygous transgenic HSA^LR (line 20 b) mice,[90] which were kindly provided by Dr Thornton (Rochester, NY) and were housed and bred in our animal facility. Experimental groups were FVB as healthy control and HSA^LR treated with a scrambled ON (SC) and PBS as negative controls, and HSA^LR mice treated with all six experimental CPP-PMOs. The mice were randomly allocated to the different treatments as follows: in each cage, each mouse was ear-marked as it was taken out, and each mouse was then assigned to a different treatment. […] Mice were sacrificed 45 days after the first injection and the tissues of interest were frozen in liquid nitrogen for the molecular and histological assays. All the mice used in this study ranged from 5 to 5.5 months of age and all were males.

[2] = test system: HSALR mice; test: White blood cell differential count
Text: Mouse handling and experimental procedures followed the European law regarding laboratory animal care and experimentation (2003/65/C.E.) and were approved by Conselleria de Agricultura, […] (reference no. A1539961490857). We used homozygous transgenic HSA^LR (line 20 b) mice,[90] which were kindly provided by Dr Thornton (Rochester, NY) and were housed and bred in our animal facility. […] The mice were randomly allocated to the different treatments as follows: in each cage, each mouse was ear-marked as it was taken out, and each mouse was then assigned to a different treatment. Animals were injected biweekly intravenously with 150 μL of 1× PBS vehicle (controls; […] Mice were sacrificed 45 days after the first injection and the tissues of interest were frozen in liquid nitrogen for the molecular and histological assays. All the mice used in this study ranged from 5 to 5.5 months of age and all were males. At 45 days post treatment, animals were sacrificed, and blood was collected by cardiac puncture exsanguination with K3-EDTA (Sarstedt, Nümbrecht, Germany). The samples were analyzed by Laboratorios Montoro Botella (Valencia, Spain).

[3] = ELISA determination of antimiR conjugate concentrations in tissues; conditions: HSALR mice, 9.2 mg/kg (mean) i.v. x3, day 45, 9.2 mg/kg; for CPP-PMO concentration (pM), Brain / CPP-PMO concentration (pM), Gastrocnemius / CPP-PMO concentration (pM), Heart / CPP-PMO concentration (pM), Kidney / CPP-PMO concentration (pM), Liver / CPP-PMO concentration (pM), Quadriceps: hybridization ELISA, background subtracted, individual mice; for CPP-PMO levels in tissues, in words: ELISA in kidney, liver, heart, quadriceps, gastrocnemius, brain
Protocol: Custom ELISA-based measurements of antimiR conjugate concentrations in brain, kidney, liver, heart, gastrocnemius, and quadriceps from treated HSA^LR mice were performed as described in Burki et al.,[89] using the following phosphorothioate probes: for miR-218 (5′ → 3′) [DIG] T∗T∗G∗T∗G∗C∗T∗TGATCTA∗A∗C∗C∗A∗T∗G∗T [BIO]; for miR-23b (5′ → 3′) [BIO] A∗T∗C∗A∗C∗A∗T∗TGCCAGG∗G∗A∗T∗T∗A∗C∗C [DiG] double-labeled with digoxigenin (DIG) and biotin (BIO). In all cases, a control sample was used to subtract the background (HSA^LR treated with PBS for 9b2 and 9b2-KC ONs; HSA^LR treated with Scramble for 6aKC ONs).
Mouse handling and experimental procedures followed the European law regarding laboratory animal care and experimentation (2003/65/C.E.) and were approved by Conselleria de Agricultura, Generalitat Valenciana (reference no. A1539961490857). We used homozygous transgenic HSA^LR (line 20 b) mice,[90] which were kindly provided by Dr Thornton (Rochester, NY) and were housed and bred in our animal facility. Experimental groups were FVB as healthy control and HSA^LR treated with a scrambled ON (SC) and PBS as negative controls, and HSA^LR mice treated with all six experimental CPP-PMOs. The mice were randomly allocated to the different treatments as follows: in each cage, each mouse was ear-marked as it was taken out, and each mouse was then assigned to a different treatment. Animals were injected biweekly intravenously with 150 μL of 1× PBS vehicle (controls; HSA^LR n = 7 and FVB n = 6) or 150 μL of a solution 1.875 mg/mL of the test CPP-PMOs corresponding to an average dose of 9.2 mg/kg (HSA^LR mice: SC n = 5, 9b2-218 n = 5, 9b2-23b n = 5, […] n = 5, […] n = 5, 6aKC-218 n = 5, and 6aKC-23b n = 5; see Table S6 for precise dosing). Mice were sacrificed 45 days after the first injection and the tissues of interest were frozen in liquid nitrogen for the molecular and histological assays. All the mice used in this study ranged from 5 to 5.5 months of age and all were males.

[4] = HSALR mice, 9.2 mg/kg (mean) i.v. x3, day 45, blood, differential count, mean ± sd

Substance | Percentage spliced-in (PSI) Atp2a1 Gast [1] | Percentage spliced-in (PSI) Atp2a1 Quads [1] | Basophils ([2]; mouse, in vivo, iv, 9.2 mg/kg) | Eosinophils ([2]; mouse, in vivo, iv, 9.2 mg/kg) | Lymphocytes ([2]; mouse, in vivo, iv, 9.2 mg/kg) | Monocytes ([2]; mouse, in vivo, iv, 9.2 mg/kg) | Seg cells ([2]; mouse, in vivo, iv, 9.2 mg/kg) | CPP-PMO concentration (pM), Brain [3] | CPP-PMO concentration (pM), Gastrocnemius [3] | CPP-PMO concentration (pM), Heart [3] | CPP-PMO concentration (pM), Kidney [3] | CPP-PMO concentration (pM), Liver [3] | CPP-PMO concentration (pM), Quadriceps [3] | other results
9b2-218 (antisense ACAUGGUUAGAUCAAGCACAA; all phosphorodiamidate morpholino (PMO), T or U not given here; Pip9b2 peptide conjugated) | 14.72% and 85.58% and 28.83% and 19.19% and 31.61% | 71.69% and 99.29% and 50.19% and 99.72% and 99.28% | 0,2 ± 0,447% | 5,40 ± 2,073% | 61,60 ± 4,159% | 9,60 ± 3,209% | 22,40 ± 3,647% | 33.45 pM and 18.40 pM and 128.86 pM | 504.97 pM and 1534.26 pM and 428.98 pM | 1166.04 pM and 1995.51 pM and 1662.31 pM | 348919.38 pM and 303314.43 pM and 726042.17 pM | 16959.56 pM and 11986.59 pM and 23535.44 pM | 482.70 pM and 1344.85 pM and 1437.67 pM | –
9b2KC-23b (antisense GGUAAUCCCUGGCAAUGUGAU; all phosphorodiamidate morpholino (PMO), T or U not given here; Pip9b2KC peptide conjugated) | 11.22% and 31.29% and 33.92% and 10.51% and 42.67% | 37.72% and 33.71% and 28.53% and 24.15% and 39.24% | 0 ± 0% | 9,50 ± 3,109% | 60,25 ± 6,185% | 5,75 ± 2,363% | 23,5 ± 4,203% | 17.78 pM and 0.01 pM and 0.87 pM | 3.32 pM and 2.34 pM and 0.01 pM | 256.63 pM and 2.97 pM and 105.40 pM | 404860.30 pM and 2213436.59 pM and 1672927.68 pM | 113314.70 pM and 27707.42 pM and 93287.30 pM | 127.62 pM and 457.08 pM and 0.82 pM | CPP-PMO levels in tissues, in words [3]: lower muscle levels; CPP-PMO levels in tissues, in words ([3]; listed as 9bKC-23b): accumulation in liver was higher compared with our target tissues
TCTTACCTCAGTTACAATTTA-Pip9b2 [Scramble, reference compound] | 6.44% and 27.49% and 24.15% and 5.60% and 15.65% | 18.65% and 34.43% and 18.71% and 17.01% and 7.50% | – | – | – | – | – | – | – | – | – | – | – | Basophils [2, 4]: 0 ± 0%; Eosinophils [2, 4]: 2 ± 0,707%; Lymphocytes [2, 4]: 60 ± 14,543%; Monocytes [2, 4]: 11,60 ± 7,829%; Seg cells [2, 4]: 25,8 ± 8,349%; Stab cells [2, 4]: 0,60 ± 0,548%
